Measured values reported in paper PMC7053995, “New approach for membrane protein reconstitution into peptidiscs and basis for their adaptability to different proteins” (eLife, 2020).

B1: Escherichia coli MsbA (ABC transporter, lipid transporter), His-tagged (natural protein)
chain: MHNDKDLSTWQTFRRLWPTIAPFKAGLIVAGVALILNAASDTFMLSLLKPLLDDGFGKTDRSVLVWMPLVVIGLMILRGITSYVSSYCISWVSGKVVMTMRRRLFGHMMGMPVSFFDKQSTGTLLSRITYDSEQVASSSSGALITVVREGASIIGLFIMMFYYSWQLSIILIVLAPIVSIAIRVVSKRFRNISKNMQNTMGQVTTSAEQMLKGHKEVLIFGGQEVETKRFDKVSNRMRLQGMKMVSASSISDPIIQLIASLALAFVLYAASFPSVMDSLTAGTITVVFSSMIALMRPLKSLTNVNAQFQRGMAACQTLFTILDSEQEKDEGKRVIERATGDVEFRNVTFTYPGRDVPALRNINLKIPAGKTVALVGRSGSGKSTIASLITRFYDIDEGEILMDGHDLREYTLASLRNQVALVSQNVHLFNDTVANNIAYARTEQYSREQIEEAARMAYAMDFINKMDNGLDTVIGENGVLLSGGQRQRIAIARALLRDSPILILDEATSALDTESERAIQAALDELQKNRTSLVIAHRLSTIEKADEIVVVEDGVIVERGTHNDLLEHRGVYAQLHKMQFGQ
notes: MsbA, ABC transporter of Escherichia coli; Nucleotide-free; also called His6-MsbA; source: E. coli C43, purified (DDM, Ni-NTA, SEC)
B2: Escherichia coli mechanosensitive channel MscS, His-tagged (natural protein, UniProt P0C0S1 1-286, looked up)
chain: MEDLNVVDSINGAGSWLVANQALLLSYAVNIVAALAIIIVGLIIARMISNAVNRLMISRKIDATVADFLSALVRYGIIAFTLIAALGRVGVQTASVIAVLGAAGLAVGLALQGSLSNLAAGVLLVMFRPFRAGEYVDLGGVAGTVLSVQIFSTTMRTADGKIIVIPNGKIIAGNIINFSREPVRRNEFIIGVAYDSDIDQVKQILTNIIQSEDRILKDREMTVRLNELGASSINFVVRVWSNSGDLQNVYWDVLERIKREFDAAGISFPYPQMDVNFKRVKEDKAA
notes: full-length E. coli MscS cloned into pET-28b(+); Homo-heptamer; source: E. coli BL21 (DE3), purified (Ni-NTA, SEC)

Legend:
[1] = molecular target: Rhodobacter sphaeroides dimeric RC–LH1–PufX complex (521 kDa) (Rhodobacter sphaeroides) (UniProt P0C0Y7); assay: negative-stain electron microscopy; SEC peak fractions of purified RC complexes in peptidiscs, 0.7% uranyl formate, 100 class averages by K-means classification
[2] = molecular target: the molecule itself; assay: cryo-EM structure; single-particle cryo-EM of His-tagged membrane protein reconstituted on Ni beads into peptidiscs and purified by SEC; vitrified; Titan Krios 300 kV, K2 Summit; RELION-3 with C2 (MsbA) or C7 (MscS) symmetry imposed, also processed without symmetry

Molecule | stoichiometry N [1] | stoichiometry N [2]
Rhodobacter sphaeroides dimeric RC–LH1–PufX complex (521 kDa) (from UniProt P0C0Y7 1-260; P13402 1-82) | 2 | 
B1 |  | 2
B2 |  | 7
